B1: Poly A-GTCG (3A-GTCG-5A) (ssDNA)
DNA: AAAGTCGAAAAA
B2: Poly A-GTCC (3A-GTCC-5A) (ssDNA)
DNA: AAAGTCCAAAAA
B3: Poly C (12 C) (ssDNA)
DNA: CCCCCCCCCCCC
B4: Poly A-ATCG (3A-ATCG-5A) (ssDNA)
DNA: AAAATCGAAAAA
B5: Poly A-CTCA (3A-CTCA-5A) (ssDNA)
DNA: AAACTCAAAAAA
B6: Poly A-ATCT (3A-ATCT-5A) (ssDNA)
DNA: AAAATCTAAAAA
B7: Poly A-CTCC (3A-CTCC-5A) (ssDNA)
DNA: AAACTCCAAAAA
B8: Poly A-GTCT (3A-GTCT-5A) (ssDNA)
DNA: AAAGTCTAAAAA
B9: Poly A-CTCT (3A-CTCT-5A) (ssDNA)
DNA: AAACTCTAAAAA
B10: Poly A-GTCA (3A-GTCA-5A) (ssDNA)
DNA: AAAGTCAAAAAA
B11: Poly T (12 T) (ssDNA)
DNA: TTTTTTTTTTTT
B12: Poly A-TTCA (3A-TTCA-5A) (ssDNA)
DNA: AAATTCAAAAAA
B13: Poly T-C (5T-C-6T) (ssDNA)
DNA: TTTTTCTTTTTT
B14: Poly A-TTCT (3A-TTCT-5A) (ssDNA)
DNA: AAATTCTAAAAA
B15: Poly A-CC (4A-CC-6A) (ssDNA)
DNA: AAAACCAAAAAA
B16: Poly A-ATCC (3A-ATCC-5A) (ssDNA)
DNA: AAAATCCAAAAA
B17: Poly A-TTCC (3A-TTCC-5A) (ssDNA)
DNA: AAATTCCAAAAA
B18: Poly A-TC (4A-TC-6A) (ssDNA)
DNA: AAAATCAAAAAA
B19: Poly A-ATCA (3A-ATCA-5A) (ssDNA)
DNA: AAAATCAAAAAA
B20: SDHB hairpin RNA (UC in loop) (structured_RNA)
RNA: GCCAUCUAUCGAUGGG
B21: SDHB hairpin RNA, loop UC to AA (structured_RNA)
RNA: GCCAUCUAAAGAUGGG
B22: TTCA-1A (ssDNA)
DNA: TTCAA
B23: 1A-TTCA (ssDNA)
DNA: ATTCA

One data set deals with T1, A3A(E72A) (Homo sapiens, UniProt P31941 1-199, E72A). The experiment in a line: fluorescence anisotropy; pH 6.0; 50 mM MES pH 6.0, 100 mM NaCl, 0.5 mM TCEP, room temperature overnight, 10 nM TAMRA-oligo; competition with 300 nM A3A(E72A); pH series: acetate 4.0-5.0, MES 5.5-6.5, HEPES 7.0-8.0, Tris 8.5-9.0. The following applies: protein: recombinant; tags: His6-SUMO removed by Ulp1 (untagged); label: 5' TAMRA. (In fluorescence polarisation assays a small probe gives low polarisation when free and higher when bound to something large.)
T1 sequence (P31941 whole entry E72A): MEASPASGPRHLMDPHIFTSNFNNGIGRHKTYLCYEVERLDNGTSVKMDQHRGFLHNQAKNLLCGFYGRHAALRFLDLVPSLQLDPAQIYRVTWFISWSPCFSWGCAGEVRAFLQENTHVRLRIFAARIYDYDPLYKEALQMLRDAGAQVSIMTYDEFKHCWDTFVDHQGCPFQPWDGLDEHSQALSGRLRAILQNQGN
For B1, the Kd (usually the equilibrium constant for the complex coming apart) was 150 ± 3 nM.

In the case of B2, the Kd stood at 152 ± 2 nM.

Turning to B3, the equilibrium dissociation constant (Kd) turned out to be 1570 ± 117 nM.

As for B4, the dissociation constant Kd came to 154 ± 2 nM.

For B5, the Kd amounted to 85 ± 1 nM.

In the case of B6, the dissociation constant Kd was determined as 209 ± 5 nM.

Regarding B7, the Kd was found to be 101 ± 2 nM.

Take B8: the Kd was found to be 218 ± 7 nM.

Regarding B9, the Kd is 122 ± 2 nM.

Turning to B10, the Kd is 150 ± 3 nM.

Consider B11, for which the dissociation constant (Kd) was 748 ± 44 nM.

For the molecule B12, the equilibrium dissociation constant (Kd) was 90 ± 1 nM.

As for B13, the Kd came to 35 ± 2 nM.

With B14, the dissociation constant (Kd) was determined as 127 ± 2 nM.

In the case of B15, the Kd stood at 250 ± 14 nM.

As to B16, the Kd stood at 163 ± 3 nM.

B17: the Kd is 114 ± 2 nM.

With B18, the Kd is 143 ± 4 nM.

For the molecule B19, the dissociation constant (Kd) turned out to be 145 ± 2 nM.

Still in this data set, the particulars now being: protein: recombinant; tags: His6-SUMO removed by Ulp1 (untagged); label: TAMRA (5'); hairpin.
On to B20, for which the dissociation constant Kd was 37 nM.

On to B21, for which the dissociation constant Kd came out at 202 nM.

Another data set has as its target T1, A3A(E72A). Kind of data set: competition; vs TAMRA-3A-TTCA-6A; 50 mM MES pH 6.0, 100 mM NaCl, 0.5 mM TCEP, room temperature overnight, 10 nM TAMRA-oligo; competition with 300 nM A3A(E72A); pH series: acetate 4.0-5.0, MES 5.5-6.5, HEPES 7.0-8.0, Tris 8.5-9.0. The following applies: protein: recombinant; tags: His6-SUMO removed by Ulp1 (untagged); label: unlabeled.
For B22, the binding result is reported as “no binding”.

Consider B23, for which the binding result is “no binding”.

The record behind these values is paper PMC5951847, “Substrate sequence selectivity of APOBEC3A implicates intra-DNA interactions”.
